Assay results reported in the supplement of paper PMC10065799, “High-throughput profiling of sequence recognition by tyrosine kinases and SH2 domains using bacterial peptide display” (eLife, 2023).

Target: Fyn (UniProt P06241)
Assay: phosphorylation enrichment, bacterial display (enrichment ratio); higher = better substrate or ligand; peptides without Tyr show the background
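Wherever SH2 binding enrichment of the phosphorylated peptide, bacterial display is given: peptide library displayed on the E. coli surface as eCPX fusions, selected cells deep-sequenced, score is each peptide's frequency after selection divided by its frequency in the input.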
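Wherever phosphorylation enrichment, bacterial display is given: 11-residue human phosphosite peptides and single-mutation variants displayed on the E. coli surface, counted by deep sequencing, each peptide's frequency after selection divided by its frequency in the unselected input library; frequency after pTyr selection over input frequency; kinase dosed for 20-30% of maximal phosphorylation in three min.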

Sequence of Fyn (P06241 whole entry, looked up): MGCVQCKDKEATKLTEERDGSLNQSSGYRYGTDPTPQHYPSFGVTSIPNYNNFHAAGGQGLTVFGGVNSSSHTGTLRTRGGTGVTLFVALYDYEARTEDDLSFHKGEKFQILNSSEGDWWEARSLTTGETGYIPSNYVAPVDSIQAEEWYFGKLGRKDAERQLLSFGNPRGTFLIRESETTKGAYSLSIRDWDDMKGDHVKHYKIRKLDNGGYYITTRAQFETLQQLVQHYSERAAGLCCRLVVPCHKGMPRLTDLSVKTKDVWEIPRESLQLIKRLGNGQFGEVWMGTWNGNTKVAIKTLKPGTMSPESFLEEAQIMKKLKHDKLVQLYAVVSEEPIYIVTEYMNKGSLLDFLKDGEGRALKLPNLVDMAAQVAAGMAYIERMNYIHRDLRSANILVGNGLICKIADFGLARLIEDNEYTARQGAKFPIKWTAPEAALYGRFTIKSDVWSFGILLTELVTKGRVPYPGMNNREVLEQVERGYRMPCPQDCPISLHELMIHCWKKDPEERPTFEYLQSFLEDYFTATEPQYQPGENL

Sequence	phosphorylation enrichment
AEYGLYAAMVR [VSX2_Y222_G223A]	6.68
SCRENYSYSEE [LEMD3_Y258_D260Y]	0.512
YSTPPYLLEAA [BRIP1_Y921_S919P]	1.56
AFGEVYEGQES [ALK_Y1131_V1135E]	0.598
AKIDGYIISFR	0.412
FGFPGYQSKHF [TIMP3_Y177_YF]	0.521
ENELTYYCCKK [CD59_Y86]	1.72
KMKGDYFRSLA [YWHAG_Y130_Y133S_YF]	0.399
LNERHYGALIG [BPGM_Y92]	0.514
FGIAQYCCRMG [LRRK2_Y2023_YF]	0.423
SHRQDYLVGNK [GSTA1_Y147_G144R]	0.435
LPKVSYVKAID [GLRA1_Y307]	0.391
RNAAEYPLSSG [ABL1_Y139_L140P]	0.401
RRKRAYVEIEY [MAK16_Y282_Q277R]	0.667
IDLEKYKLLPE [DHFR_Y157]	0.511
TWSRSYRSDRL [CRYBB1_Y131_S129R]	0.453

Tested on: Fer (mouse)
Assay: as above

Sequence	phosphorylation enrichment
AEYGLYAAMVR [VSX2_Y222_G223A]	5.05
SCRENYSYSEE [LEMD3_Y258_D260Y]	0.48
YSTPPYLLEAA [BRIP1_Y921_S919P]	1.09
AFGEVYEGQES [ALK_Y1131_V1135E]	0.478
AKIDGYIISFR	0.386
FGFPGYQSKHF [TIMP3_Y177_YF]	0.406
ENELTYYCCKK [CD59_Y86]	0.779
KMKGDYFRSLA [YWHAG_Y130_Y133S_YF]	0.436
LNERHYGALIG [BPGM_Y92]	0.459
FGIAQYCCRMG [LRRK2_Y2023_YF]	0.467
SHRQDYLVGNK [GSTA1_Y147_G144R]	0.334
LPKVSYVKAID [GLRA1_Y307]	0.34
RNAAEYPLSSG [ABL1_Y139_L140P]	0.402
RRKRAYVEIEY [MAK16_Y282_Q277R]	0.996
IDLEKYKLLPE [DHFR_Y157]	0.51
TWSRSYRSDRL [CRYBB1_Y131_S129R]	0.452

Target: EPHB2 (UniProt P29323)
Sequence (P29323 whole entry, looked up): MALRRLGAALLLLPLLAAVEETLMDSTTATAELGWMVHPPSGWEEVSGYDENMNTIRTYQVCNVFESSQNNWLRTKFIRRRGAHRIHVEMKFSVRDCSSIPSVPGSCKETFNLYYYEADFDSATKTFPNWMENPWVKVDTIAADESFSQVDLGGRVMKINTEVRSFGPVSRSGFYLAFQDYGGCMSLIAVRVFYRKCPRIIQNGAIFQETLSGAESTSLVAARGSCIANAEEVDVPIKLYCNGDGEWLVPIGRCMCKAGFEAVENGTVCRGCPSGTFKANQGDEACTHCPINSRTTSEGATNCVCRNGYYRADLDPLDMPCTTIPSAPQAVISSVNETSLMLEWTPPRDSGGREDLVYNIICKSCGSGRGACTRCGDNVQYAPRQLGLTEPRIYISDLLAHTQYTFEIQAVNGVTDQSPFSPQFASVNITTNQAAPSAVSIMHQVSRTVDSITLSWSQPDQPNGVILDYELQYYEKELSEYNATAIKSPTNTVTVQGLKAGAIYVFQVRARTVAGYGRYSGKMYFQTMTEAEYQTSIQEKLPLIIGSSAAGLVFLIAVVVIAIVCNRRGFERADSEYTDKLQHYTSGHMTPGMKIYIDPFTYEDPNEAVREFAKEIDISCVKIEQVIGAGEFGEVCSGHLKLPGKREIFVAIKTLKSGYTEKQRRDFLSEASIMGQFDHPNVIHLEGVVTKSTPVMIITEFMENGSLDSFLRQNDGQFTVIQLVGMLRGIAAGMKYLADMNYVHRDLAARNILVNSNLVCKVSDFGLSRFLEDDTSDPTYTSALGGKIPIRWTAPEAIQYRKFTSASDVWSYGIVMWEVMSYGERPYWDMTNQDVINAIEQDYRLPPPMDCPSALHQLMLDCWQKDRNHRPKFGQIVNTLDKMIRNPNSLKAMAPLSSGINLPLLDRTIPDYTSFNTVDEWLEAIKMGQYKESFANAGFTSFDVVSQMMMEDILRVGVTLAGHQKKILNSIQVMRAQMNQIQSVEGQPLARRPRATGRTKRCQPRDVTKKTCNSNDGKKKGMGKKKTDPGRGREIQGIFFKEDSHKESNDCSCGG
Assay: as above

Sequence	phosphorylation enrichment
AEYGLYAAMVR [VSX2_Y222_G223A]	9.84
SCRENYSYSEE [LEMD3_Y258_D260Y]	0.604
YSTPPYLLEAA [BRIP1_Y921_S919P]	0.711
AFGEVYEGQES [ALK_Y1131_V1135E]	0.622
AKIDGYIISFR	0.412
FGFPGYQSKHF [TIMP3_Y177_YF]	0.398
ENELTYYCCKK [CD59_Y86]	0.97
KMKGDYFRSLA [YWHAG_Y130_Y133S_YF]	0.361
LNERHYGALIG [BPGM_Y92]	0.469
FGIAQYCCRMG [LRRK2_Y2023_YF]	6.66
SHRQDYLVGNK [GSTA1_Y147_G144R]	0.431
LPKVSYVKAID [GLRA1_Y307]	0.411
RNAAEYPLSSG [ABL1_Y139_L140P]	0.345
RRKRAYVEIEY [MAK16_Y282_Q277R]	1.06
IDLEKYKLLPE [DHFR_Y157]	0.738
TWSRSYRSDRL [CRYBB1_Y131_S129R]	0.51

Target: MERTK (UniProt Q12866)
Sequence (Q12866 whole entry, looked up): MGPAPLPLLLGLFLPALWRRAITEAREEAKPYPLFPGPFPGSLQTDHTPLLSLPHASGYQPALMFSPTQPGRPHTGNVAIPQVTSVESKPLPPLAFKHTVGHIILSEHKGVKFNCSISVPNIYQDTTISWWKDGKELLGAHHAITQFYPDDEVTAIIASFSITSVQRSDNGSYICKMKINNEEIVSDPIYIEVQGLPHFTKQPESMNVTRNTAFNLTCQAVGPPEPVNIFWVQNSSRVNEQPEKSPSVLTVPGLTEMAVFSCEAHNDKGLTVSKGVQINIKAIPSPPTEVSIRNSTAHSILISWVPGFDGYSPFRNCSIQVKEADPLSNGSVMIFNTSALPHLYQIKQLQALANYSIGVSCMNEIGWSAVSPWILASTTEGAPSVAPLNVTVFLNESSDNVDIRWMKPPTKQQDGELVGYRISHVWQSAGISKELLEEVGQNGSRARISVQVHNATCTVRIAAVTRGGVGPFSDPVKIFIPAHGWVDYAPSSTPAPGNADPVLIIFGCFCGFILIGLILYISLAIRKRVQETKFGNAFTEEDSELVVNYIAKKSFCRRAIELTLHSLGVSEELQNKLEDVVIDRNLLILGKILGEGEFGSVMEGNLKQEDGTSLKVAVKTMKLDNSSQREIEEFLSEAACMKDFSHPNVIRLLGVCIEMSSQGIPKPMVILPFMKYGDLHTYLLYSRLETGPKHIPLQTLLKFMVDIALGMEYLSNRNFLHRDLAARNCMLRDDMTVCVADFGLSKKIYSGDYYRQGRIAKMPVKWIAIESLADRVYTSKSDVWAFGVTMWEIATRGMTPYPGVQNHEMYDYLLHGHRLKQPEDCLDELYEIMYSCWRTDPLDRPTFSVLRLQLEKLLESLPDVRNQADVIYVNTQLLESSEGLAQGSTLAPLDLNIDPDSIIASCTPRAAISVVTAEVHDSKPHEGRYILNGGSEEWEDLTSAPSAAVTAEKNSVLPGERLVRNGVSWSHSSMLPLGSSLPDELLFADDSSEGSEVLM
Assay: as above

Sequence	phosphorylation enrichment
AEYGLYAAMVR [VSX2_Y222_G223A]	6.46
SCRENYSYSEE [LEMD3_Y258_D260Y]	0.428
YSTPPYLLEAA [BRIP1_Y921_S919P]	3.63
AFGEVYEGQES [ALK_Y1131_V1135E]	0.438
AKIDGYIISFR	0.37
FGFPGYQSKHF [TIMP3_Y177_YF]	0.405
ENELTYYCCKK [CD59_Y86]	1.08
KMKGDYFRSLA [YWHAG_Y130_Y133S_YF]	0.437
LNERHYGALIG [BPGM_Y92]	0.536
FGIAQYCCRMG [LRRK2_Y2023_YF]	1.25
SHRQDYLVGNK [GSTA1_Y147_G144R]	0.311
LPKVSYVKAID [GLRA1_Y307]	0.542
RNAAEYPLSSG [ABL1_Y139_L140P]	0.453
RRKRAYVEIEY [MAK16_Y282_Q277R]	1.22
IDLEKYKLLPE [DHFR_Y157]	0.484
TWSRSYRSDRL [CRYBB1_Y131_S129R]	0.518

Target: Fes (UniProt P07332)
Sequence (P07332 whole entry, looked up): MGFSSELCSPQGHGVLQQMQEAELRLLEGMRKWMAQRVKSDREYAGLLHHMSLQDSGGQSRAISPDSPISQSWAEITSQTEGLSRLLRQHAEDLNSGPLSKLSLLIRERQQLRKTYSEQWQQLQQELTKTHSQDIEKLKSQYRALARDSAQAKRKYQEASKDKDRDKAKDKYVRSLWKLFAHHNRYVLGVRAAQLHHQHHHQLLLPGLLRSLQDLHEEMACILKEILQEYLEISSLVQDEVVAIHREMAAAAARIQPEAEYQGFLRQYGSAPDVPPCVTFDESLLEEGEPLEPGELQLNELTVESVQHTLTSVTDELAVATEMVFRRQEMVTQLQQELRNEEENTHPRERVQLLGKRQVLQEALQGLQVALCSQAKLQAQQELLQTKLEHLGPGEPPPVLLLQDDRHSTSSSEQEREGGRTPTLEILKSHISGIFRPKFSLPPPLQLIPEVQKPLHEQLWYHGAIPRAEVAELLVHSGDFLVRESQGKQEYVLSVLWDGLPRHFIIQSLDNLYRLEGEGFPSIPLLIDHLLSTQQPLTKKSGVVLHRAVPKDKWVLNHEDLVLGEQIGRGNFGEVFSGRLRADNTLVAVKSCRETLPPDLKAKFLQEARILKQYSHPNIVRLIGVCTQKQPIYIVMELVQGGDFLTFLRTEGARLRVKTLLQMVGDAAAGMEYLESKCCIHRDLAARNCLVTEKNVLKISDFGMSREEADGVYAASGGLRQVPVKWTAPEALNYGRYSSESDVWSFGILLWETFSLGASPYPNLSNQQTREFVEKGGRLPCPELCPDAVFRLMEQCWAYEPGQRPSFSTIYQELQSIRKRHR
Assay: as above

Sequence	phosphorylation enrichment
AEYGLYAAMVR [VSX2_Y222_G223A]	1.4
SCRENYSYSEE [LEMD3_Y258_D260Y]	1.22
YSTPPYLLEAA [BRIP1_Y921_S919P]	1.17
AFGEVYEGQES [ALK_Y1131_V1135E]	1.05
AKIDGYIISFR	1.13
FGFPGYQSKHF [TIMP3_Y177_YF]	0.651
ENELTYYCCKK [CD59_Y86]	0.955
KMKGDYFRSLA [YWHAG_Y130_Y133S_YF]	0.675
LNERHYGALIG [BPGM_Y92]	0.609
FGIAQYCCRMG [LRRK2_Y2023_YF]	0.797
SHRQDYLVGNK [GSTA1_Y147_G144R]	0.665
LPKVSYVKAID [GLRA1_Y307]	0.652
RNAAEYPLSSG [ABL1_Y139_L140P]	0.898
RRKRAYVEIEY [MAK16_Y282_Q277R]	1.21
IDLEKYKLLPE [DHFR_Y157]	1.2
TWSRSYRSDRL [CRYBB1_Y131_S129R]	0.715

Target: SHP2-C SH2
Assay: SH2 binding enrichment of the phosphorylated peptide, bacterial display (enrichment ratio); higher = better substrate or ligand; peptides without Tyr show the background

Sequence	SH2 binding enrichment
AEYGLYAAMVR [VSX2_Y222_G223A]	0.574
SCRENYSYSEE [LEMD3_Y258_D260Y]	1.08
YSTPPYLLEAA [BRIP1_Y921_S919P]	0.811
AFGEVYEGQES [ALK_Y1131_V1135E]	0.677
AKIDGYIISFR	0.547
FGFPGYQSKHF [TIMP3_Y177_YF]	0.75
ENELTYYCCKK [CD59_Y86]	0.82
KMKGDYFRSLA [YWHAG_Y130_Y133S_YF]	0.825
LNERHYGALIG [BPGM_Y92]	0.74
FGIAQYCCRMG [LRRK2_Y2023_YF]	0.836
SHRQDYLVGNK [GSTA1_Y147_G144R]	0.802
LPKVSYVKAID [GLRA1_Y307]	0.768
RNAAEYPLSSG [ABL1_Y139_L140P]	0.354
RRKRAYVEIEY [MAK16_Y282_Q277R]	0.938
IDLEKYKLLPE [DHFR_Y157]	0.718
TWSRSYRSDRL [CRYBB1_Y131_S129R]	0.354

Target: Grb2 SH2 (UniProt P62993)
Sequence (P62993 whole entry, looked up): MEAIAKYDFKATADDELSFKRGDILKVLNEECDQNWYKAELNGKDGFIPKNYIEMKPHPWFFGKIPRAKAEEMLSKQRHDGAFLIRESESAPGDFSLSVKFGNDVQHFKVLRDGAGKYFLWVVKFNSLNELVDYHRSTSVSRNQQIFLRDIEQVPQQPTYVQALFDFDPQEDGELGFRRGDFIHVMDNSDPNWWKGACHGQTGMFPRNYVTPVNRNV
Assay: as above

Sequence	SH2 binding enrichment
AEYGLYAAMVR [VSX2_Y222_G223A]	0.82
SCRENYSYSEE [LEMD3_Y258_D260Y]	1.04
YSTPPYLLEAA [BRIP1_Y921_S919P]	0.862
AFGEVYEGQES [ALK_Y1131_V1135E]	0.842
AKIDGYIISFR	0.936
FGFPGYQSKHF [TIMP3_Y177_YF]	1.07
ENELTYYCCKK [CD59_Y86]	0.953
KMKGDYFRSLA [YWHAG_Y130_Y133S_YF]	0.917
LNERHYGALIG [BPGM_Y92]	0.871
FGIAQYCCRMG [LRRK2_Y2023_YF]	1.26
SHRQDYLVGNK [GSTA1_Y147_G144R]	0.55
LPKVSYVKAID [GLRA1_Y307]	0.868
RNAAEYPLSSG [ABL1_Y139_L140P]	0.865
RRKRAYVEIEY [MAK16_Y282_Q277R]	1.32
IDLEKYKLLPE [DHFR_Y157]	0.844
TWSRSYRSDRL [CRYBB1_Y131_S129R]	0.636

Target: c-Src SH2
Assay: as above

Sequence	SH2 binding enrichment
AEYGLYAAMVR [VSX2_Y222_G223A]	0.485
SCRENYSYSEE [LEMD3_Y258_D260Y]	1.66
YSTPPYLLEAA [BRIP1_Y921_S919P]	1.08
AFGEVYEGQES [ALK_Y1131_V1135E]	0.557
AKIDGYIISFR	0.576
FGFPGYQSKHF [TIMP3_Y177_YF]	0.588
ENELTYYCCKK [CD59_Y86]	0.483
KMKGDYFRSLA [YWHAG_Y130_Y133S_YF]	0.753
LNERHYGALIG [BPGM_Y92]	0.613
FGIAQYCCRMG [LRRK2_Y2023_YF]	0.936
SHRQDYLVGNK [GSTA1_Y147_G144R]	0.501
LPKVSYVKAID [GLRA1_Y307]	0.459
RNAAEYPLSSG [ABL1_Y139_L140P]	0.497
RRKRAYVEIEY [MAK16_Y282_Q277R]	0.37
IDLEKYKLLPE [DHFR_Y157]	0.486
TWSRSYRSDRL [CRYBB1_Y131_S129R]	0.38
